Measurements published in the supplement of paper PMC9876800.

Tested on: peptide library, one residue held at a place counted from the S/T acceptor
Experiment: relative phosphorylation of the sub-library (ratio to the mean residue at this position); higher = residue favoured
In short: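 Relative sub-library phosphorylation, a ratio to the mean residue at that position, was obtained by phosphorimaging and densitometry of spots on streptavidin membranes. Before capture, purified recombinant kinases were incubated for 90 min under kinase-specific conditions with 50 μM biotinylated degenerate peptide sub-libraries and 50 μM ATP spiked with γ-32P-ATP. Each sub-library fixed one residue at one position around a central Ser/Thr.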

Sequence of CDK17, construct: Full length, human (Q00537 whole entry, looked up): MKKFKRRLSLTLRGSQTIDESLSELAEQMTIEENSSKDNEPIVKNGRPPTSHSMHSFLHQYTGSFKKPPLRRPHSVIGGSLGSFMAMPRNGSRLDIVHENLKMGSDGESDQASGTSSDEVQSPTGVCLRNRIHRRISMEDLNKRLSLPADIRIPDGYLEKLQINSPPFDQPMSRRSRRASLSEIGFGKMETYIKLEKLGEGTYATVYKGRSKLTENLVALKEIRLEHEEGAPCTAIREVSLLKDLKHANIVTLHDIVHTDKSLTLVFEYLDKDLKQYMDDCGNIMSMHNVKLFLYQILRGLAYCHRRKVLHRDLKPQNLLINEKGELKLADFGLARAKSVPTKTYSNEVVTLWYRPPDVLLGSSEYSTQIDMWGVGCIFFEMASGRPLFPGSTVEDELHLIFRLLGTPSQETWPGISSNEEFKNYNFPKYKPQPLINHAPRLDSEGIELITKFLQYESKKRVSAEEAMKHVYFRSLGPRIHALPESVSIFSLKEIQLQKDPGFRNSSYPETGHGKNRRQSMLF
Sequence of CDK19, construct: Full length, human (Q9BWU1 whole entry, looked up): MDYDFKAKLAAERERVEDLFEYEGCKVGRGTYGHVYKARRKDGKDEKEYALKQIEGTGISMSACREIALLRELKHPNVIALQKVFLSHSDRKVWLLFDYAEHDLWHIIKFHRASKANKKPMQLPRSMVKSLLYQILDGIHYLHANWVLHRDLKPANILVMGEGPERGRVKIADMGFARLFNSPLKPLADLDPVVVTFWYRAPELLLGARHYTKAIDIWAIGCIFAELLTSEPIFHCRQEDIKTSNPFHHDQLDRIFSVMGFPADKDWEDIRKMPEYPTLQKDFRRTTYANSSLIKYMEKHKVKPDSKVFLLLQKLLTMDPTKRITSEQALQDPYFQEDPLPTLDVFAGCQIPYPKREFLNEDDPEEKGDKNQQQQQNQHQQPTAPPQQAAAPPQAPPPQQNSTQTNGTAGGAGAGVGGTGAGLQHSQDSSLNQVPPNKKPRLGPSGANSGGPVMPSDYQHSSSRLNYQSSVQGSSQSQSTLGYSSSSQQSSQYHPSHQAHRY
Sequence of CDK12, construct: aa714-1063, human (Q9NYV4 714-1063, looked up): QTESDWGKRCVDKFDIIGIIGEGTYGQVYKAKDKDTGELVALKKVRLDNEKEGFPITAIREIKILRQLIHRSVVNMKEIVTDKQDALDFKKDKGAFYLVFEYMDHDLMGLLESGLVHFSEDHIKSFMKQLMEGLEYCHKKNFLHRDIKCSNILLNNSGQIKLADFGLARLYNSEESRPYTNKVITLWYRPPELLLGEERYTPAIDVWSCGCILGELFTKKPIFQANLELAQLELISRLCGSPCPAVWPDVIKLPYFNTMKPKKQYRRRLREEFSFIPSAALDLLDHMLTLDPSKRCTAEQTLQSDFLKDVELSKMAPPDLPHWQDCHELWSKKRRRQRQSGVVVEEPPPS

CDK5, construct: Full length, human (from UniProt Q00535)
relative phosphorylation
Conditions	at +1	at +2	at +3	at +4	at -1	at -2	at -3	at -4	at -5
A fixed	0.423	1.13	0.791	1.07	1.16	1.08	1.05	1.15	1.22
D fixed	0.262	0.357	0.165	0.478	0.753	0.717	0.92	1.1	1.24
E fixed	0.305	0.516	0.12	0.512	0.747	0.842	1.02	0.993	1.03
F fixed	0.227	0.765	0.485	0.679	0.557	0.765	0.65	0.801	0.925
G fixed	1.25	1.06	0.809	1.56	1.86	1.21	1.47	1.47	1.35
H fixed	0.344	1.19	3.07	1.27	0.925	1.03	1.12	1.05	1.03
I fixed	0.261	0.87	0.444	0.828	0.346	0.646	0.742	0.642	0.63
K fixed	0.374	2.44	3.21	1.92	1.49	0.85	1.05	1.07	1.26
L fixed	0.278	0.831	0.536	0.754	0.697	0.958	0.673	0.689	0.625
M fixed	0.382	0.869	0.542	0.967	0.995	1.01	0.894	0.86	0.725
N fixed	0.569	0.828	1.08	0.81	1.17	1.01	1.17	1	0.916
P fixed	10.5	0.464	0.63	0.829	1.49	2.71	1.8	1.61	1.45
Q fixed	0.492	0.971	0.636	1.05	1.24	0.998	1.06	0.952	0.979
R fixed	0.373	2	3.14	1.57	1.48	0.788	1.06	0.988	1.07
V fixed	0.377	0.926	0.397	0.904	0.568	0.788	0.75	0.695	0.757
W fixed	0.285	0.763	0.463	0.957	0.722	0.786	0.811	1.1	0.766
Y fixed	0.258	1.01	0.49	0.836	0.805	0.817	0.763	0.825	1.01
pThr fixed	0.518	0.434	0.412	0.38	0.408	0.721	0.956	0.995	0.939
pTyr fixed	0.513	0.44	0.344	0.453	0.548	0.748	0.822	0.835	1.01

CDK12, construct: aa714-1063, human (from UniProt Q9NYV4)
relative phosphorylation
Conditions	at +1	at +2	at +3	at +4	at -1	at -2	at -3	at -4	at -5
A fixed	0.323	0.895	0.799	0.848	1.09	1.19	1.04	1.11	1.13
D fixed	0.154	0.546	0.392	0.912	0.38	0.47	0.629	0.861	0.879
E fixed	0.155	0.5	0.446	0.923	0.438	0.456	0.707	0.9	0.735
F fixed	0.341	0.984	0.553	0.891	0.844	0.667	0.778	1.07	1.21
G fixed	0.715	1.28	0.854	1.43	1.58	1.7	2.58	1.27	1.09
H fixed	0.261	1.21	1.79	1.44	0.876	0.811	0.897	1.04	1.01
I fixed	0.309	0.911	0.929	0.828	0.364	0.973	0.971	0.891	0.868
K fixed	0.27	1.34	0.977	0.804	1.01	0.659	0.63	0.832	0.847
L fixed	0.36	0.853	0.545	0.765	0.834	0.863	0.754	0.946	0.939
M fixed	0.357	1.16	0.523	0.832	1.65	1.28	0.819	1.04	0.924
N fixed	0.227	0.992	0.721	0.973	0.801	0.713	0.686	0.893	0.82
P fixed	12.1	0.747	1.26	0.992	1.08	1.84	1.33	1.06	1.28
Q fixed	0.243	0.828	0.709	0.889	0.982	0.738	0.637	0.763	0.883
R fixed	0.281	1.77	3.97	0.962	2.34	1.58	1.75	1.02	1.03
V fixed	0.319	0.846	0.71	0.73	0.467	0.906	0.762	0.784	0.899
W fixed	0.283	0.933	0.881	1.58	1.1	1.2	0.927	1.35	1.19
Y fixed	0.274	1.2	0.934	1.21	1.17	0.956	1.1	1.19	1.27
pThr fixed	0.363	0.528	0.566	0.999	0.336	0.48	0.83	0.846	0.975
pTyr fixed	0.378	0.504	0.859	1.29	1.16	0.719	0.908	0.998	0.975

CDK17, construct: Full length, human (from UniProt Q00537)
relative phosphorylation
Conditions	at +1	at +2	at +3	at +4	at -1	at -2	at -3	at -4	at -5
A fixed	0.203	0.683	0.739	1	0.979	1.25	0.977	0.99	1.07
D fixed	0.116	0.603	0.323	0.54	0.654	0.496	0.806	0.95	0.96
E fixed	0.109	0.412	0.294	0.427	0.49	0.585	0.902	1.02	0.845
F fixed	0.152	0.697	0.959	0.828	0.644	0.742	0.666	0.802	0.856
G fixed	0.781	0.865	0.862	1.86	1.93	0.898	1.62	1.19	1.01
H fixed	0.152	1.16	0.66	1.14	0.801	0.831	0.907	0.98	1.18
I fixed	0.157	0.826	1.48	0.823	0.251	0.872	0.68	0.836	0.806
K fixed	0.236	2.09	0.904	1.32	1.61	0.701	0.945	1.34	1.49
L fixed	0.17	1.03	2.01	0.797	0.689	0.962	0.675	0.779	0.98
M fixed	0.17	1.02	1.99	0.99	1.06	1.13	0.881	0.822	0.861
N fixed	0.174	1.15	0.854	0.987	1.03	1	1.21	1.37	1.02
P fixed	13.6	0.758	1.66	0.889	1.69	3.2	2.12	1.41	1.06
Q fixed	0.195	1	0.962	0.962	1.28	0.893	1.03	0.933	0.834
R fixed	0.191	1.92	0.783	1.52	1.51	0.875	1.13	0.924	1.01
V fixed	0.222	0.863	1.07	0.77	0.403	0.859	0.782	0.605	0.698
W fixed	0.181	0.879	0.791	1.09	0.999	0.887	0.855	1.14	1.19
Y fixed	0.149	1.05	0.65	1.06	0.97	0.824	0.818	0.907	1.12
pThr fixed	0.514	0.699	0.939	0.451	0.438	0.909	1.06	1.04	0.832
pTyr fixed	0.707	0.491	0.903	0.492	0.452	0.788	0.883	0.7	0.88

CDK19, construct: Full length, human (from UniProt Q9BWU1)
relative phosphorylation
Conditions	at +1	at +2	at +3	at +4	at -1	at -2	at -3	at -4	at -5
A fixed	0.247	1.28	1.17	0.978	1.14	1.69	1.08	1.05	0.905
D fixed	0.112	0.577	0.659	1.05	0.698	0.518	0.695	0.93	1.26
E fixed	0.114	0.592	0.564	0.915	0.416	0.463	0.881	1.1	1.23
F fixed	0.193	0.915	0.784	0.971	0.947	0.465	1.18	1.22	1.42
G fixed	0.865	1.39	1.39	1.15	1.64	0.829	1.27	1.07	1.02
H fixed	0.295	1.02	1.1	0.988	0.929	0.589	0.958	0.997	1.11
I fixed	0.378	0.721	0.633	0.857	0.238	0.935	0.602	1.01	0.863
K fixed	0.198	1.08	0.651	0.736	0.93	0.276	0.61	0.73	0.702
L fixed	0.271	1.09	0.685	0.948	0.948	1.09	0.67	1.04	0.878
M fixed	0.32	1.22	1.1	1.1	1.5	0.922	1.39	1.07	0.895
N fixed	0.371	0.959	1.33	1.02	0.918	0.658	1.26	0.741	0.879
P fixed	11.8	0.913	2.42	1.28	1.61	5.16	1.39	0.878	0.771
Q fixed	0.314	1.1	0.892	1.01	1	0.846	1.16	0.881	0.801
R fixed	0.186	1.51	0.934	0.919	1.53	0.393	0.674	0.875	0.844
V fixed	0.92	0.725	0.903	0.945	0.425	1.25	0.583	0.786	0.685
W fixed	0.248	1	0.881	1.24	1.01	0.498	1.45	1.34	1.08
Y fixed	0.196	0.925	0.918	0.888	1.11	0.423	1.15	1.28	1.65
pThr fixed	0.381	0.481	0.581	0.829	0.318	0.651	0.695	0.915	0.914
pTyr fixed	0.344	0.83	0.733	0.902	0.505	0.427	0.718	1.03	1.12
